{"source": "patent US20230340128A1", "binders": {"B1": {"name": "XENP32938 (bispecific antibody, part only; not given: anti-CD3 scFv-Fc arm, constant regions, V domains shown, not shown: another chain or arm of the molecule; a dimerising Fc or GST; small tags and cut ends)", "VH": "QVQLVQSGAEVKKPGASVKVSCKASGYTFTSYWMHWVRQAPGQGLEWMGMIHPNSDNTIYYYKFQGRVTMTVDKSISTAYMELSRLRSDDTAVYYCAIIITPVVPKFDYWGQGTLVTVSS", "VL": "DIVMTQSPDSLAVSLGERATINCKASHDVGTSVAWYQQKPGQSPKLLIYWASTRHTGVPDRFTGSGSGTDFTLTISSLQAEDVAVYFCQQYYSYPLTFGAGTKLEIK"}, "B2": {"name": "XENP32939 (bispecific antibody, part only; not given: anti-CD3 scFv-Fc arm, constant regions, V domains shown, not shown: another chain or arm of the molecule; a dimerising Fc or GST; small tags and cut ends)", "VH": "B1 VH with M50W, Y62E", "VL": "B1 VL with T31Q, Y92S"}, "B3": {"name": "XENP32560 (bispecific antibody, part only; not given: anti-CD3 scFv-Fc arm, constant regions, V domains shown, not shown: another chain or arm of the molecule; a dimerising Fc or GST; small tags and cut ends)", "VH": "B1 VH with Y62E", "VL": "B1 VL with H27Q, Y92S"}, "B4": {"name": "XENP32940 (bispecific antibody, part only; not given: anti-CD3 scFv-Fc arm, constant regions, V domains shown, not shown: another chain or arm of the molecule; a dimerising Fc or GST; small tags and cut ends)", "VH": "B1 VH with M50W, Y62E", "VL": "B1 VL with Y92S, Y94F"}, "B5": {"name": "XENP32943 (bispecific antibody, part only; not given: anti-CD3 scFv-Fc arm, constant regions, V domains shown, not shown: another chain or arm of the molecule; a dimerising Fc or GST; small tags and cut ends)", "VH": "B1 VH with M50W, Y62E", "VL": "B1 VL with Y92S, Y94I"}}, "key": {"[1]": {"target": "human mesothelin (MSLN) (human) (UniProt Q13421)", "assay": "BLI (Octet), multiple concentrations, bsAb in 1+1 Fab-scFv-Fc format"}, "[2]": {"target": "cyno MSLN (Macaca fascicularis)", "assay": "BLI (Octet), bsAb in 1+1 Fab-scFv-Fc format"}, "[3]": {"target": "human mesothelin (MSLN) (human) (UniProt Q13421)", "assay": "BLI (Octet), bsAb in 1+1 Fab-scFv-Fc format"}}, "note": "Residue numbers refer to the chain shown, from its start.", "data": [{"binder": "B1", "values": [{"measurement": "Kd", "setting": "[1]", "value": 16.2, "unit": "nM"}, {"measurement": "Response", "setting": "[1]", "value": 0.169}, {"measurement": "koff", "setting": "[1]", "value": 0.0103, "unit": "s⁻¹"}, {"measurement": "kon", "setting": "[1]", "value": 635000, "unit": "M⁻¹ s⁻¹"}]}, {"binder": "B2", "values": [{"measurement": "Kd", "setting": "[1]", "value": 90.4, "unit": "nM"}, {"measurement": "Response", "setting": "[1]", "value": 0.202}, {"measurement": "koff", "setting": "[1]", "value": 0.0383, "unit": "s⁻¹"}, {"measurement": "kon", "setting": "[1]", "value": 424000, "unit": "M⁻¹ s⁻¹"}]}, {"binder": "B3", "values": [{"measurement": "Kd", "setting": "[2]", "value": 1.2, "unit": "nM"}, {"measurement": "Response", "setting": "[2]", "value": 0.948}, {"measurement": "koff", "setting": "[2]", "value": 0.000762, "unit": "s⁻¹"}, {"measurement": "kon", "setting": "[2]", "value": 634000, "unit": "M⁻¹ s⁻¹"}, {"measurement": "Kd", "setting": "[3]", "value": 0.633, "unit": "nM"}, {"measurement": "Response", "setting": "[3]", "value": 1.03}, {"measurement": "koff", "setting": "[3]", "value": 0.000383, "unit": "s⁻¹"}, {"measurement": "kon", "setting": "[3]", "value": 605000, "unit": "M⁻¹ s⁻¹"}]}, {"binder": "B4", "values": [{"measurement": "Kd", "setting": "[1]", "value": 246, "unit": "nM"}, {"measurement": "Response", "setting": "[1]", "value": 0.136}, {"measurement": "koff", "setting": "[1]", "value": 0.0816, "unit": "s⁻¹"}, {"measurement": "kon", "setting": "[1]", "value": 332000, "unit": "M⁻¹ s⁻¹"}]}, {"binder": "B5", "values": [{"measurement": "Response", "setting": "[1]", "value": 0.0022}]}]}
